# Laboratory results taken from patent publication US8367389B2, “Methods, compositions and devices utilizing structurally stable cyanuric acid hydrolase” (Regents of the University of Minnesota, priority 2009, dated 2013).
# Where two headings read alike, the source gives them in different places.
# Key:
# [1] = molecular target: T1, cyanuric acid hydrolase from M. thermoacetica (Moorella thermoacetica, UniProt Q2RGM7); experiment: Metal chelator effects; type: biochemical, Moorella thermoacetica ATCC 39073; details: for effect of chelator on activity: 5 mM chelator, 24 h incubation, room temperature
# T1 construct: ORF Moth—2120 from M. thermoacetica ATCC 39073 was PCR amplified; His-tag (from pET28b+, cloned NdeI/HindIII) (N); made in house; host or cells: E. coli BRL21(DE3) pLysS, vector pET28b+::Moth_2120
# T1 sequence (Q2RGM7 1-367): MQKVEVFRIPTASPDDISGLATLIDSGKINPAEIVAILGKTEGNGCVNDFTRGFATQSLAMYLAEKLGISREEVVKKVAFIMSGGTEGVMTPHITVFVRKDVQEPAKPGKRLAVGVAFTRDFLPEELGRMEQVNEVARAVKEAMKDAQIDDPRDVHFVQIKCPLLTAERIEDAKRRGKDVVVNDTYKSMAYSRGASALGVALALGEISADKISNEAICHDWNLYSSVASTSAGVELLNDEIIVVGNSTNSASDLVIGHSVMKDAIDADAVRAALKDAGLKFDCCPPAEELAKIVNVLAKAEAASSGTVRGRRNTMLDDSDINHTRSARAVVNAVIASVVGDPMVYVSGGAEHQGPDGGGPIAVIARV
# Experimental: Metal chelator effects. Purified protein was incubated at room temperature with 5 mM 1,10-phenanthroline, 8-hydroxyquinoline-5-sulfonic acid, or ethylenediaminetetraacetic acid (EDTA) for 24 hours. PD-10 desalting columns (GE Healthcare) were used, as per the manufacturer's instructions, to remove the chelator from the enzyme. Enzymatic activity was measured with cyanuric acid as substrate, as described above.
# [2] = molecular target: T1, cyanuric acid hydrolase from M. thermoacetica; type: biochemical, Moorella thermoacetica ATCC 39073; details: for activity as % of native activity: at higher concentrations (1.0 and 2.0 mM); for effect of metal on native enzyme activity: 0.2 mM
# [3] = molecular target: T2, Moorella cyanuric acid hydrolase (Moorella thermoacetica, UniProt Q2RGM7); experiment: Substrate specificity analysis; type: biochemical, Moorella thermoacetica ATCC 39073
# T2 construct: ORF Moth—2120 from M. thermoacetica ATCC 39073 was PCR amplified; His-tag (from pET28b+, cloned NdeI/HindIII) (N); made in house; host or cells: E. coli BRL21(DE3) pLysS, vector pET28b+::Moth_2120
# T2 sequence (Q2RGM7 1-367): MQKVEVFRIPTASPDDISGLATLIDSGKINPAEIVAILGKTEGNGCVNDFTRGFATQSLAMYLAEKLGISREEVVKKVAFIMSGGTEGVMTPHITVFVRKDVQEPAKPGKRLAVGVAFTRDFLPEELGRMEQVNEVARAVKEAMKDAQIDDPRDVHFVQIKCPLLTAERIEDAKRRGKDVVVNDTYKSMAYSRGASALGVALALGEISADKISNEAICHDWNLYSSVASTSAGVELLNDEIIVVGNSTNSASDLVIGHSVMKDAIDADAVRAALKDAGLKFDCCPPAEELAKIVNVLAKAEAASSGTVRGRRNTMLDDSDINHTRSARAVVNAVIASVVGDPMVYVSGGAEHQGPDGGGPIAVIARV
# Experimental: (§1) Enzyme assay and kinetic constant determinations. Enzyme activity was monitored on a Beckman DU 640 spectrophotometer (Beckman Coulter, Fullerton, Calif.). Cyanuric acid and barbituric acid concentrations were measured at 214 nm (extinction coefficient=9200 cm^−1M^−1) and 256 nm, respectively. Reactions were carried out in 0.5 ml 25 mM Tris-HCl buffer, pH 8.0 with 100 μM cyanuric acid or barbituric acid at 30° C. Reactions were initiated by the addition of the enzyme. Kinetic parameters were determined by obtaining rates at cyanuric acid concentrations ranging from 10 to 110 μM. The data was plotted using Lineweaver-Burke plots.
# Substrate specificity analysis. Seventeen compounds structurally analogous to cyanuric acid were tested as substrates: 5-nitrobarbituric acid, 5-methylbarbituric acid, 2-methylamino-4,6dihydroxy-s-triazine, 1,3,5-trimethoxy-s-triazine, 2-(3-methoxy propylamino)-4,6-dihydroxy-s-triazine, triphenoxy-s-triazine, 2-secbutyl-4,6-dihydroxy-s-triazine, N-phenyl ammelide, 2-ethylamino-4,6-dihydroxy-s-triazine, triisopropoxy-s-triazine, trimethyl isocyanurate, 1,3-dimethyl isocyanurate, hexazinone, 4,6-dihydroxy-2-mecapto pyrimidine, 4,6-dihydroxy-5-nitro-pyrimidine, barbituric acid and methyl isocyanurate. The compounds (100 μM) were incubated with 50 μg of purified enzyme in 25 mM Tris-HCl buffer (pH 8.0) for 30 min. Changes in the UV spectra were recorded. In cases where changes in the spectra were detected, an appropriate wavelength with absorbance differences between the substrate and product was chosen for further kinetic study. For N-methylisocyanurate, absorbance was measured at 214 nm (extinction coefficient=9500 cm^−1M^−1).
# [4] = Enzyme assay and kinetic constant determinations (cyanuric acid, 214 nm); type: biochemical
# Experimental: as §1
# [5] = cyanuric acid, published values, cited from earlier work
# [6] = Effect of pH and temperature on enzymatic activity; type: biochemical
# Experimental: Effect of pH and temperature on enzymatic activity. The optimum pH of the enzyme was determined at 30° C. with the following buffers: 25 mM […]; 25 mM Tris-HCl, pH 7-9; NaHCO3/Na2CO3, pH 9.5-10.5. The temperature optimum was determined by assaying the enzyme activity in 25 mM Tris-HCl, pH 8.0 at temperatures ranging from 25° C. to 70° C.
# [7] = Temperature stability of the enzyme (30 min incubation prior to assay); type: biochemical
# Experimental: FIG. 4. Stability of enzyme activity vs. temperature at pH 8.0 for purified cyanuric acid hydrolases from M. thermoacetica ATCC 39073 (●) compared with TrzD (▪) and AtzD (▴). Enzymes were maintained at the temperature indicated for 30 minutes prior to assay under standard conditions.
# (§2) Temperature stability of the enzyme. The thermal stability of the enzyme was determined by incubating the enzyme at various temperatures for […] prior to activity determinations. Studies of the stability during storage were performed at 4° C. or −80° C. with or without additives. The additives were 0.2 mM of dithiothreitol (DTT), 10% ethylene glycol, 25% glycerol and 25% polyethylene glycol (PEG) 4000. The activity was checked every two weeks, as described above.
# [8] = molecular target: T3, cyanuric acid hydrolase from M. thermoacetica ATCC 39073 (Moorella thermoacetica, UniProt Q2RGM7); experiment: Storage stability at 4° C. or −80° C. with or without additives; type: biochemical, Moorella thermoacetica ATCC 39073; details: for Activity, 0 week: pH 8.0, 0 week; for Activity, 2 week: pH 8.0, 2 week; for Activity, 4 week: pH 8.0, 4 week; for Activity, 6 week: pH 8.0, 6 week; for Activity, 8 week: pH 8.0, 8 week
# T3 construct: ORF Moth—2120 from M. thermoacetica ATCC 39073 was PCR amplified; His-tag (from pET28b+, cloned NdeI/HindIII) (N); made in house; host or cells: E. coli BRL21(DE3) pLysS, vector pET28b+::Moth_2120
# T3 sequence (Q2RGM7 1-367): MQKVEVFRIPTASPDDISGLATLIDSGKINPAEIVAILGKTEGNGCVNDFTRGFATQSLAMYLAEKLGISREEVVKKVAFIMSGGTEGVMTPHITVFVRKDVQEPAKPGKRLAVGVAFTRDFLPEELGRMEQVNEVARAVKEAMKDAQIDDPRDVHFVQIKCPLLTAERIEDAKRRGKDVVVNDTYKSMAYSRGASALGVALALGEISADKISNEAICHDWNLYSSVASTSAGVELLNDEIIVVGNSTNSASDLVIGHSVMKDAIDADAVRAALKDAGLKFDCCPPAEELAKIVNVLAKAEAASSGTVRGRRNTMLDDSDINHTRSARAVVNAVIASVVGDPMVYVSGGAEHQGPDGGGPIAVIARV
# Experimental: as §2
molecule,measurement,setting,value
O=S(=O)(O)c1ccc(O)c2ncccc12 [8-hydroxyquinoline-5-sulfonic acid],effect of chelator on activity,[1],failed to alter activity
[Ca+2].[Cl-].[Cl-] [CaCl2],activity as % of native activity,[2],121%
same,Relative activity,[2]; metal salt 1.0 mM,121 ± 7
[Cl-].[Cl-].[Co+2] [CoCl2],Relative activity,[2],92 ± 5
[Cl][Cu][Cl] [CuCl2],effect of metal on native enzyme activity,[2],slight decreases in activity
same,Relative activity,[2]; metal salt 0.2 mM,83 ± 3
"O=C(O)CN(CCN(CC(=O)O)CC(=O)O)CC(=O)O [EDTA, ethylenediaminetetraacetic acid]",effect of chelator on activity,[1],failed to alter activity
[Cl][Fe]([Cl])[Cl] [FeCl3],Relative activity,[2]; metal salt 0.2 mM,105 ± 4
[Cl-].[Cl-].[Mg+2] [MgCl2],activity as % of native activity,[2],119%
same,Relative activity,[2]; metal salt 2.0 mM,119 ± 2
O=S(=O)([O-])[O-].[Mn+2] [MnSO4],Relative activity,[2]; metal salt 0.2 mM,96 ± 3
[Cl][Ni][Cl] [NiCl2],effect of metal on native enzyme activity,[2],slight decreases in activity
same,Relative activity,[2]; metal salt 0.2 mM,79 ± 3
O=S(=O)([O-])[O-].[Zn+2] [ZnSO4],effect of metal on native enzyme activity,[2],greatest inhibitory affect
same,Relative activity,[2]; metal salt 0.2 mM,51 ± 4
O=C1CC(=O)NC(=O)N1 [barbituric acid],detectable activity with compound as substrate,"[3]; 100 μM, even with 50 μg of protein in a single assay",did not show detectable activity
Cn1c(=O)[nH]c(=O)[nH]c1=O [methyl isocyanurate],rate relative to the preferred substrate cyanuric acid,[3],less than 1%
same,rate of hydrolysis as substrate,"[3]; 100 μM compound, 25 mM Tris-HCl pH 8.0",0.13 µmol/min/mg
"c1cnc2c(c1)ccc1cccnc12 [o-phenanthroline, 1,10-phenanthroline]",effect of chelator on activity,[1],failed to alter activity
"cyanuric acid hydrolase from M. thermoacetica ATCC 39073: recombinant His-tagged cyanuric acid hydrolase encoded by ORF Moth—2120 of Moorella thermoacetica ATCC 39073, expressed in E. coli (protein, listed as Moorella thermoacetica, His tag, recombinant His-tagged cyanuric acid hydrolase encoded by ORF Moth—2120 of Moorella thermoacetica ATCC 39073, expressed in E. coli) MQKVEVFRIPTASPDDISGLATLIDSGKINPAEIVAILGKTEGNGCVNDFTRGFATQSLAMYLAEKLGISREEVVKKVAFIMSGGTEGVMTPHITVFVRKDVQEPAKPGKRLAVGVAFTRDFLPEELGRMEQVNEVARAVKEAMKDAQIDDPRDVHFVQIKCPLLTAERIEDAKRRGKDVVVNDTYKSMAYSRGASALGVALALGEISADKISNEAICHDWNLYSSVASTSAGVELLNDEIIVVGNSTNSASDLVIGHSVMKDAIDADAVRAALKDAGLKFDCCPPAEELAKIVNVLAKAEAASSGTVRGRRNTMLDDSDINHTRSARAVVNAVIASVVGDPMVYVSGGAEHQGPDGGGPIAVIARV",specific activity with cyanuric acid,"[4]; 100 μM cyanuric acid, 25 mM Tris-HCl pH 8.0, 30° C.",15.7 µmol/min/mg
same,Km,"[4]; cyanuric acid 10 to 110 μM, Lineweaver-Burke, read-out: Km with cyanuric acid as substrate",110 µM
same,kcat,[4]; cyanuric acid as substrate,10.6 s⁻¹
same,kcat (literature),[5],10.6 s⁻¹
same,Km,[5]; read-out: Km (literature),110 µM
same,Influence of chelators on activity,[1],"No affect EDTA, o-"
same,"Temp, optimum","[6]; 25 mM Tris-HCl pH 8.0, range 25-70° C.",70 °C
same,pH optimum,"[6]; 30° C., pH 5.5 to 10.5",8.0
same,maximum activity at 70° C.,"[6]; 70° C., pH 8.0",24 μmol per min per mg protein
same,initial activity remaining after 30 min at 50° C.,"[7]; 30 min, pH 8.0",stable
same,initial activity remaining after 30 min at 50° C.,"[7]; 30 min, pH 8.0, listed as Moorella enzyme",95%
same,initial activity remaining after 30 min at 70° C.,"[7]; 70° C., 30 min, pH 8.0",30%
same,Thermostability: temperature where activity above 50% after a 30 min incubation,"[7]; pH 8.0, 30 min incubation",20-65 °C
same,Metal affects on activity,[2],"Cu(II), Zn(I), Ni(II)"
same,loss of activity after 8 weeks,[8]; both storage temperatures (4° C. and −80° C.),no loss of activity
same,specific activity after 8 weeks as % of initial specific activity,"[8]; stored at 4° C., 8 weeks",142%
same,"Activity, 0 week",[8]; stored at 4° C.,11.9 ± 0.23 μmol per min per mg protein
same,"Activity, 2 week",[8]; stored at 4° C.,12.5 ± 0.2 μmol per min per mg protein
same,"Activity, 4 week",[8]; stored at 4° C.,15.9 ± 0.7 μmol per min per mg protein
same,"Activity, 6 week",[8]; stored at 4° C.,16.6 ± 0.9 μmol per min per mg protein
same,"Activity, 8 week",[8]; stored at 4° C.,16.9 ± 1^ μmol per min per mg protein
same,"Activity, 0 week",[8]; stored at −80° C.,11.9 ± 0.2 μmol per min per mg protein
same,"Activity, 2 week",[8]; stored at −80° C.,14.9 ± 0.1 μmol per min per mg protein
same,"Activity, 4 week",[8]; stored at −80° C.,14.3 ± 0.3 μmol per min per mg protein
same,"Activity, 6 week",[8]; stored at −80° C.,12.3 ± 0.4 μmol per min per mg protein
same,"Activity, 8 week",[8]; stored at −80° C.,11.7 ± 1.1 μmol per min per mg protein
same,Known substrates,[3],"Cyanuric acid, N-"
